PMC4731787, “Structural basis for the recognition of two consecutive mutually interacting DPF motifs by the SGIP1 μ homology domain” (Scientific Reports, 2016)
Read-outs that look alike come from different tables or passages of the source. Where no end group is shown, it is not given here. GST = glutathione S-transferase fusion tag

B1: SGIP1 μ homology domain (residues 552 to 828) (domain or fragment, human, UniProt Q9BQI5-1 552-828, looked up)
chain: LTMGAQDTLPVAAAFTETVNAYFKGADPSKCIVKITGEMVLSFPAGITRHFANNPSPAALTFRVINFSRLEHVLPNPQLLCCDNTQNDANTKEFWVNMPNLMTHLKKVSEQKPQATYYNVDMLKYQVSAQGIQSTPLNLAVNWRCEPSSTDLRIDYKYNTDAMTTAVALNNVQFLVPIDGGVTKLQAVLPPAVWNAEQQRILWKIPDISQKSENGGVGSLLARFQLSEGPSKPSPLVVQFTSEGSTLSGCDIELVGAGYRFSLIKKRFAAGKYLADN
notes: A SeMet-substituted form (E. coli B834(DE3)) was used only for the structure of the domain alone; also called SGIP1 μHD; μHD; source: E. coli BL21-Gold (DE3) or Rosetta2, purified (Glutathione Sepharose, 3C protease cleavage on the column, Superdex 200)
B5: Eps15-530–896 (domain or fragment, human, UniProt P42566-1 530-896, looked up)
chain: STSSSETANLNEHVEGQSNLESEPIHQESPARSSPELLPSGVTDENEVTTAVTEKVCSELDNNRHSKEEDPFNVDSSSLTGPVADTNLDFFQSDPFVGSDPFKDDPFGKIDPFGGDPFKGSDPFASDCFFRQSTDPFATSSTDPFSAANNSSITSVETLKHNDPFAPGGTVVAASDSATDPFASVFGNESFGGGFADFSTLSKVNNEDPFRSATSSSVSNVVITKNVFEETSVKSEDEPPALPPKIGTPTRPCPLPPGKRSINKLDSPDPFKLNDPFQPFPGNDSPKEKDPEIFCDPFTSATTTTNKEADPSNFANFSAYPSEEDMIEWAKRESEREEEQRLARLNQQEQEDLELAIALSKSEISEA
notes: also called C-terminal fragment of human Eps15; source: E. coli, purified (Ni Sepharose, thrombin, Glutathione Sepharose, 3C protease, Superdex 200); not shown: GST, N-terminal, cleaved; His tag, C-terminal, cleaved

Columns and labels:
[1] = biological target: SGIP1 μ homology domain (residues 552 to 828) (human) (UniProt Q9BQI5); test: ITC; VP-ITC, 25 °C, 50 mM Tris-HCl pH 8.0, 50 mM NaCl; for the majority the μHD (SGIP1, its mutants or FCHo1) in the cell, titrated with Eps15 fragments or peptides, for others the reverse (Supplementary Table 2); repeated twice, global fit with SEDPHAT, single-site or two-site model
SGIP1 µHD A565E = test: ITC of Eps15 fragments with the SGIP1 μHD A565E mutant; type: binding, human; conditions: for Kd: 25 °C, 50 mM Tris-HCl pH 8.0, 50 mM NaCl, mutant μHD in cell titrated with fragment, two runs
Description: (§1) For the majority of the ITC experiments, the SGIP1 μHD, its mutants, or the FCHo1 μHD, in 50 mM Tris-HCl buffer (pH 8.0) containing 50 mM NaCl, was loaded in the sample cell, in a volume of 1.42 ml, and titrated with various Eps15-derived fragments or peptides in the same buffer, with an initial 5 μl injection and subsequent 10 μl injections, for a total of 25 injections. The titrations were performed while the samples were stirred at 310 r.p.m. at 25 °C. Each injection was followed by an interval of 4 min, to allow baseline stabilization. For the other ITC experiments indicated in Supplementary Table 2, the Eps15-derived fragments or peptides in the sample cell were titrated with the SGIP1 or FCHo1 μHD. All ITC experiments were performed on a VP-ITC microcalorimeter (MicroCal, LLC) and repeated twice, and the data were processed with the program NITPIC[42]. The two data sets from each ITC experiment were analyzed by global weighted least-squares fitting with the program SEDPHAT[43]. Figures for the ITC data were created with the program GUSSI (http://biophysics.swmed.edu/MBR/software.html). To obtain the values of the traditional stoichiometric parameter N in our ITC data analyses (Supplementary Table 2), we used the values of the parameters of the incompetent fractions of proteins and ligands. […] The values of the incompetent fractions are between 0 and 1, whereas the other parameter affecting the traditional parameter N, the number of sites, was fixed as 1 and 2, for the single- and two-site models, respectively. Thus, in the two-site model, the values of N for the first and second sites are identical in our ITC data analyses (Supplementary Table 2).

SGIP1 µHD A563E = test: ITC of Eps15 fragments with the SGIP1 μHD A563E mutant; type: binding, human; conditions: for Kd: 25 °C, 50 mM Tris-HCl pH 8.0, 50 mM NaCl, mutant μHD in cell titrated with fragment, two runs
Description: as §1

[2] = biological target: T1, SGIP1 μHD (residues 552 to 828) (Homo sapiens, UniProt Q9BQI5); test: ITC of Eps15 fragments with the SGIP1 μHD; type: binding; conditions: for Kd: 50 mM Tris-HCl pH 8.0, 50 mM NaCl, global fit of two runs
T1 construct: the SGIP1 μHD (residues 552 to 828); GST (N, cleaved yes); made in house; host or cells: Escherichia coli BL21-Gold (DE3) or Rosetta2
T1 sequence (Q9BQI5 552-828): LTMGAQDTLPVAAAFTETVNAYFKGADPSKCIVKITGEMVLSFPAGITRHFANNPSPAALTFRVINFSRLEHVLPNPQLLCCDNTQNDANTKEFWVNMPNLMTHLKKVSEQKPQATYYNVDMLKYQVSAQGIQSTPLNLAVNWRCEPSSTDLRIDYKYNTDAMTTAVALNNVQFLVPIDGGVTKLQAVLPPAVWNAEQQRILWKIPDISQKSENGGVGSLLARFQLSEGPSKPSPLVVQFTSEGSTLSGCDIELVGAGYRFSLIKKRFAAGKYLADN
Description: as §1

Eps15-530–896 = biological target: B5; test: SEC; analytical gel filtration on Superdex 200, 50 mM Tris-HCl pH 8.0, 50 mM NaCl, 5 mM DTT, 5% glycerol; fractions on SDS-PAGE; Eps15-530–896 and μHD mixed 1:2.4; Eps15-530–896, μHD and appendage domain mixed 1:3:6; conditions: both partners purified
[3] = biological target: T2, SGIP1 µ homology domain (µHD), residues 552 to 828 (human, UniProt Q9BQI5-1 552-828); test: ITC; µHD, µHD mutant or α-adaptin appendage domain in the sample cell, titrated with the Eps15 fragment or peptide; 50 mM Tris-HCl (pH 8.0), 50 mM NaCl, 25 °C; VP-ITC; two data sets fitted globally (NITPIC, SEDPHAT); single-site model; conditions: both partners purified
T2 construct: pGEX-6P-1 construct cut with 3C protease; also called SGIP1 µHD; human SGIP1 µHD (aa552–828); source: E. coli BL21-Gold (DE3) or Rosetta2, purified (Glutathione Sepharose 4B, 3C protease cleavage, Superdex 200)
T2 sequence (looked up): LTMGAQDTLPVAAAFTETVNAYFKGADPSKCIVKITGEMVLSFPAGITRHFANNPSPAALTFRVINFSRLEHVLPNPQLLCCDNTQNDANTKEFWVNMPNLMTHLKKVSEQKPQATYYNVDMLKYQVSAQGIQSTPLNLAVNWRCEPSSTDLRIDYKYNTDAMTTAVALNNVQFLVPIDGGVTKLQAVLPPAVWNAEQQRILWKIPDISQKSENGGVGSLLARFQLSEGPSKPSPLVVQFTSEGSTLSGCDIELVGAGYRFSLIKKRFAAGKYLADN

[4] = biological target: T3, FCHo1 µ homology domain (µHD), residues 623 to 889 (human, UniProt O14526-1 623-889); test: as above; conditions: both partners purified
T3 construct: also called FCHo1 µHD; human FCHo1 µHD (aa623–889); source: E. coli, expressed and purified in the same manner as the SGIP1 µHD
T3 sequence (looked up): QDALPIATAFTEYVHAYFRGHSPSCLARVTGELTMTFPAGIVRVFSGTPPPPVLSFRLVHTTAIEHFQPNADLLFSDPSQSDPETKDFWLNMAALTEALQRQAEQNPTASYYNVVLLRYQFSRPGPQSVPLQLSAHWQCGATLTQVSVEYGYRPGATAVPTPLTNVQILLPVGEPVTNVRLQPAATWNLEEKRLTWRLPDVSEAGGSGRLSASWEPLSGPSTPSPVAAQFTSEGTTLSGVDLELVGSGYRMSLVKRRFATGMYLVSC

[5] = biological target: B1; test: ITC; VP-ITC, 25 °C, 50 mM Tris-HCl pH 8.0, 50 mM NaCl; for the majority the μHD (SGIP1, its mutants or FCHo1) in the cell, titrated with Eps15 fragments or peptides, for others the reverse (Supplementary Table 2); repeated twice, global fit with SEDPHAT, single-site or two-site model; conditions: both partners purified
[6] = 25 °C, μHD in cell titrated with fragment, single-site model
[7] = 25 °C, μHD in cell titrated with fragment, single-site model, ± 68.3% confidence interval
[8] = 25 °C, fragment in cell titrated with μHD, single-site model
[9] = 25 °C, fragment in cell titrated with μHD, two-site model, first site
[10] = 25 °C, fragment in cell titrated with μHD, two-site model, second site

## Eps15 two-DPF fragment, Asp of the C-terminal DPF motif replaced with Asn (peptide)
[1]
  fold reduction of the binding against the unreplaced fragment: 2.4 fold

## Eps15 two-DPF fragment, Asp of the N-terminal DPF motif replaced with Asn (peptide)
[1]
  fold reduction of the binding against the unreplaced fragment: 3.4 fold

## GST-Eps15-628–644: GST-tagged Eps15 fragment, residues 628–644, 3 DPF motifs ({GST}-SDPFKDDPFGKIDPFGG)
SGIP1 µHD A565E
  Kd: below detection limit
SGIP1 µHD A563E
  Kd: below detection limit
[2]; [6]
  -TΔS: -2.159 kcal/mol
  ΔG: -8.444 kcal/mol
[2]; [7]
  ΔH: -6.285 ± 0.144 kcal/mol

## GST-Eps15-628–654: GST-tagged Eps15 fragment, residues 628–654, 5 DPF motifs ({GST}-SDPFKDDPFGKIDPFGGDPFKGSDPFA)
SGIP1 µHD A565E
  binding to SGIP1 μHD with Ala565 replaced by Glu (in words): abolished the binding
  Kd: below detection limit
SGIP1 µHD A563E
  binding to SGIP1 μHD with Ala563 replaced by Glu (in words): abolished the binding
  Kd: below detection limit
[2]; [6]
  -TΔS: -1.785 kcal/mol
  ΔG: -8.175 kcal/mol
[2]; [7]
  ΔH: -6.39 ± 0.179 kcal/mol

## B1
Eps15-530–896
  binding result: binds

B2: appendage domain of human α-adaptin (residues 711 to 955) (domain or fragment, UniProt O95782-2 711-955, looked up)
chain: IGPPIPEADELLNKFVCKNNGVLFENQLLQIGVKSEFRQNLGRMYLFYGNKTSVQFQNFSPTVVHPGDLQTQLAVQTKRVAAQVDGGAQVQQVLNIECLRDFLTPPLLSVRFRYGGAPQALTLKLPVTINKFFQPTEMAAQDFFQRWKQLSLPQQEAQKIFKANHPMDAEVTKAKLLGFGSALLDNVDPNPENFVGAGIIQTKALQVGCLLRLEPNAQAQMYRLTLRTSKEPVSRHLCELLAQQF
notes: also called α-adaptin appendage domain; source: E. coli, purified in the same manner as for the SGIP1 μHD
Eps15-530–896
  binding result: binds

B3: Eps15-640–654 (peptide)
peptide: Ac-YDPFGGDPFKGSDPFA-NH2
notes: artificial N-terminal Tyr; source: synthetic peptide (Eurofins Genomics)
[3]
  Kd: 2.9 µM
  stoichiometry N: 0.66
[4]
  stoichiometry N: 0.64

B4: Eps15-618–648 (domain or fragment, human, UniProt P42566-1 618-648, looked up)
chain: DFFQSDPFVGSDPFKDDPFGKIDPFGGDPFK
notes: source: E. coli, purified in the same manner as for the SGIP1 μHD
[5]
  Kd: ~0.4 µM

## B5
[5]
  Kd of the high-affinity site (two-site model): ~0.13 µM
[2]; 25 °C, Eps15 fragment in cell titrated with SGIP1 μHD, two-site model, second site, 68.3% confidence interval, read-out: Kd, second site
  Kd: 27.3 ± 15.7 µM
[2]; 25 °C, Eps15 fragment in sample cell titrated with SGIP1 μHD, single-site model, ± 68.3% confidence interval, read-out: Kd
  Kd: 4.5 ± 2.2 µM
[2]; [8]
  -TΔS: 3.678 kcal/mol
  ΔG: -7.296 kcal/mol
[2]; 25 °C, fragment in cell titrated with μHD, single-site model, ± 68.3% confidence interval
  ΔH: -10.974 ± 0.504 kcal/mol
[2]; [9]
  -TΔS: -4.297 kcal/mol
  ΔG: -9.374 kcal/mol
[2]; 25 °C, fragment in cell titrated with μHD, two-site model, first site, ± 68.3% confidence interval
  ΔH: -5.077 ± 0.308 kcal/mol
[2]; [10]
  -TΔS, second site: 2.744 kcal/mol
  ΔG, second site: -6.226 kcal/mol
[2]; 25 °C, fragment in cell titrated with μHD, two-site model, second site, 68.3% confidence interval
  ΔH, second site: -8.97 ± 1.643 kcal/mol
[2]; fragment in cell titrated with μHD, single-site model, ± 68.3% confidence interval
  N (binding ratio of Eps15 fragment to μHD): 0.76 ± 0.11
[2]; fragment in cell titrated with μHD, two-site model, first site (N identical for both sites), ± 68.3% confidence interval
  N (binding ratio of Eps15 fragment to μHD): 0.96 ± 0.04
[2]; fragment in cell titrated with μHD, two-site model, second site (N identical for both sites), ± 68.3% confidence interval
  N, second site: 0.96 ± 0.04
